Patent US20200277373A1 (DENALI THERAPEUTICS, published 2020)

T1: Human TREM2 protein, on cells (human, UniProt Q9NZC2 19-230)
T1 sequence: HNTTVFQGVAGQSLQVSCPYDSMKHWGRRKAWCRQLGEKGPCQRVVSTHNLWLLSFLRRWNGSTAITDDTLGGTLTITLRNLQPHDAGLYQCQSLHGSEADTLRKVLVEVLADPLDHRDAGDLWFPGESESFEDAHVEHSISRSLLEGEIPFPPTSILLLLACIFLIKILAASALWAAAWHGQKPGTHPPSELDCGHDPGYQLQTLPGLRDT

T2: Mouse TREM2, on cells (mouse, UniProt Q99NH8 19-227)
T2 construct: whole, on cells; also called mouse TREM2 HEK
T2 sequence (looked up): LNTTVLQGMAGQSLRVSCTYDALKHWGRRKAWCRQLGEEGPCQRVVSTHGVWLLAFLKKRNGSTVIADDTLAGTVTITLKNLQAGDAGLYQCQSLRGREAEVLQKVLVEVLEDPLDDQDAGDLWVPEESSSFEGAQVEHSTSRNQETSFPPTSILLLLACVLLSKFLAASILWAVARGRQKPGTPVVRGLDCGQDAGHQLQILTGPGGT

T3: His-tagged TREM2 ECD (ecto domain residues 19-172 of human TREM2, C-terminal 6X-His tag) (human, UniProt Q9NZC2 19-172)
T3 construct: Made in Expi293F cells; the mouse Ig kappa secretion signal is not part of the mature protein; Biotinylated for the Octet binning; also called TREM2-His; TREM2-His protein
T3 sequence: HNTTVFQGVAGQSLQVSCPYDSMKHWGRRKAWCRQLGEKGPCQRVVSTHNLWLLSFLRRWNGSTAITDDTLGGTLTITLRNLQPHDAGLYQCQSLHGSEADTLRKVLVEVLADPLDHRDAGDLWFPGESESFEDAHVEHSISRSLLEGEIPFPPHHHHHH


Tests used:
[1] = molecular target: T1, Human TREM2 protein, on cells; test: cell-based or functional assay
Mouse TREM2, on cells [2] = molecular target: T2, Mouse TREM2, on cells; test: Table 5, cell binding: Mouse TREM2 HEK
[3] = molecular target: T3, His-tagged TREM2 ECD (ecto domain …); test: Table 1 Kd; Biacore, TREM2-His analyte (presumed)
Description: Anti-murine Fc antibody (obtained from GE Healthcare) was immobilized on the surface of a CM5 chip (obtained from GE Healthcare) through amine-coupling to reach about 6,000 to 8,000 response units (RU). The surface was activated by injection of a mixture of 1-ethyl-3-(3-dimethylaminopropyl)-carbodiimide (EDC) and N-hydroxysuccinimide (NHS), both obtained from GE Healthcare, for 7 minutes. Anti-murine Fc antibody was diluted in sodium acetate (pH 5.0) at 25 μg/mL and injected for 10 minutes at a flow rate of 5 μL/minute, followed by injection of ethanolamine (obtained from GE Healthcare) for 7 minutes.
Purified anti-TREM2 hybridoma (20 μg/mL) was captured to reach 1000-1500 RU. A range of serially-diluted TREM2-His protein (e.g., 3.4 nM to 300 nM) was injected at a flow rate of 30 μL/minute, using either single-cycle kinetics methods. Sensorgrams were fitted using a 1:1 Langmuir model to estimate kₒₙ and koff.

Mouse TREM2, on cells [4] = molecular target: T2, Mouse TREM2, on cells; test: flow cytometry, 293F cells overexpressing mouse TREM2
Description: (§1) After labeling, cells were washed twice with 1×PBS. […] Mixed cell lines were seeded at 300,000 cells per well in a 96-well round-bottom and incubated 20 minutes at room temperature. After incubation, cells were centrifuged and test anti-TREM2 antibodies were added, then incubated for 45 minutes on ice. After incubation, cells were centrifuged and washed with FACS buffer three times.
(§2) The data in Table 2 is presented as fold over binding (FOB).

[5] = molecular target: T1, Human TREM2 protein, on cells; test: flow cytometry, HEK293 cells overexpressing human TREM2
Description: as §1, §2

[6] = molecular target: T1, Human TREM2 protein, on cells; test: cell-based or functional assay; remark: listed apart in the source
[7] = molecular target: T3, His-tagged TREM2 ECD (ecto domain …); test: Biacore T200, antibody captured, antigen injected, 1:1 model
Description: To measure TfR binding, anti-human-Fab was immobilized on a CM5 chip, and the TREM2/TfR-binding protein was captured. Full-length human TfR or human TfR apical domain at serial dilution (e.g., concentrations of 1-1000 nM) was flowed over the chip (180 second association time) and then allowed to dissociate. Fitting was performed using a 1:1 binding model. To measure TREM2 binding, anti-human-Fc antibody was immobilized on a CM5 chip, and the TREM2/TfR-binding protein was captured. A range of concentrations of recombinant TREM2-His protein were flowed over the chip, and allowed to associate and dissociate. The resulting sensograms were fitted using a 1:1 Langmuir model to estimate kₒₙ and koff (FIG. 10).
Biacore Series S CM5 sensor chips were immobilized with a mixture of two monoclonal mouse anti-Fab antibodies (Human Fab capture kit from GE Healthcare). Serial 3-fold dilutions of each antigen were injected at a flow rate of 30 μL/min. The binding of the antigens to captured antibody was monitored for 30 to 180 seconds and then their dissociation was monitored for 30-300 seconds in HBS-EP+running buffer (GE, # BR100669). Binding response was corrected by subtracting the RU from a blank flow cell. A 1:1 Languir model of simultaneous fitting of kₒₙ and koff was used for kinetics analysis.

Binder	pSyk FOB (30 nM Ab) [1]	binding result (Mouse TREM2, on cells [2])	Kd [3]	FOB (fold over binding) (Mouse TREM2, on cells [4])	FOB (fold over binding) [5]	pSyk (nM), EC50 [6]	Kd [7]	koff [7]	kon [7]
21D11 (antibody, IgG2a, V domains shown, Mouse hybridoma antibody, IgG2a, k; also called 21D11.B1; RS8.21D11.B1) VH: QVQLQQSGAELARPGASVKLSCKASGYTFTSYWIQWVKQRPGQGLEWIGTIYPGDGDARYTQKFKGKATLTADKSSSTTYMQLNSLASEDSAVYYCARNGITTAGYYAMDYWGQGTSVTVSS VL: DIQMTQSPASLSVSVGETVTITCRASENIYSNLAWYQQKQGRSPQLLVYAATNLADGVPSRFSGSGSGTQYSLKINSLQSEDFGYYYCQHFWGTPYTFGGGTKVEIK	1.68 fold over background	no binding	0.525 nM	1.5 fold	8.4 fold				
42E8.H1 (antibody, V domains shown, Mouse hybridoma antibody, Ig2a, k; also called RS8.42E8.H1) VH: DVQLQESGPGLVKPSQSLSLTCTVTGYSITSDYAWNWIRQFPGNKLEWMGYINYSGRTIYNPSLKSRISITRDTSKNHFFLQLISVTTEDTATYYCARWNGNYGFAYWGQGTLVTVSA VL: DVVMTQNPLSLPVSLGDQASISCRSSQSLVHINGNTYLHWYLQKPGQSPKLLIYKVSNRFSGVPDRFSGSGSGTDFTLKISRVEAEDLGVYFCSQTTHALFTFGSGTKLEIK	7.17 fold over background	no binding	17 nM	3.5 fold	10.6 fold				
26E2.A3 (antibody, V domains shown, Mouse hybridoma antibody, Ig2a, k; also called RS8.26E2.A3) VH: QVHLQQSGSELRSPGSSVKLSCKDFDSEVFPISYMSWIRQKPGHGFEWIGDILPSIGGRIYGVKFEDRATLDADTVSNTAYLELNSLTSEDSAIYYCARKDYGSLAYWGQGTLVTVSA VL: DVVMTQTPLSLPVSLGDQASISCRSSQSLVHINGNTYLQWFLQKPGQSPKLLIYKVSNRFSGVPDRFSGSGSGTAFTLKISRVEAEDLGVYFCSQSTHVPYTFGGGTKLEIK	4.67 fold over background	no binding	12.8 nM	1.5 fold	10.3 fold				
3D3.A1 (antibody, V domains shown, Mouse hybridoma antibody, Ig2a, k; also called RS8.3D3.A1) VH: EVQLQQSGPELVKPGASVKISCKTSGYTLSEYTMHWVIQSHGKSLEWIGGVIPNSGGTSYNQKFRDKASLTVDKSSSTAYLELRSLTSEDSAVYYCARGDDSYRRGYALDYWGQGTSVTVSS VL: DIVMSQSPSSLAVSVGEKVTMSCKSSQSLLYSSNQKSYLAWYQQKPGQSPKLLIYWASTRESGVPDRFRGSGSGTDFTLTISSVKAEDLAVYYCQQYFSYPPTFGGGTKLEIK	10.3 fold over background		7.43 nM	8.4 fold	11.7 fold		40 nM	0.019 s⁻¹	480000 M⁻¹ s⁻¹
7B10.A2 (antibody, V domains shown) VH: EVQLQQSGPELVKPGASVKMSCKASGYTFTDYNMHWVKQSHGKSLEWIGYINPNNGGTTYNQKFKGKATLTVNKSSSTAYMELRSLTSEDSAVYYCATYNNHYFDSWGQGTTLTVSS VL: DIQMTQTTSSLSASLGDRVTISCSASQGISNYLNWYQQKPDGTVKLLIYYTSNLHSGVPSRFSGSGSGTDYSLTISNLEPEDIATYYCQQYSNLPYTFGGGTKLEIK	6.89 fold over background								
26D2.D1 (antibody, IgG2a, V domains shown, Mouse hybridoma antibody, IgG2a, k; also called RS8.26D2.D1) VH: EVQLQQSGPELVKPGASVKMSCKASGYTFTSYVMHWVKQKPGQGLEWIGYINPYTDGTKYNEKFKGKATLTSDKSSSTAYMDLSSLTSEDSAVYYCARGEVRRYALDYWGQGTSVTVSS VL: DIQMTQSSSSFSVSLGDRVTITCKASEDIYNRLAWYQQKPGNAPRLLISGATSLETGVPSRFSGSGSGKDYTLSITSLQTEDVATYYCQQYWSTPWTFGGGTKLEIK	1.73 fold over background	no binding	15 nM	2.8 fold	4.9 fold				

The next lines start with the values.

pSyk FOB (30 nM Ab) [1]	binding result (Mouse TREM2, on cells [2])	Kd [3]	FOB (fold over binding) (Mouse TREM2, on cells [4])	FOB (fold over binding) [5]	pSyk (nM), EC50 [6]	Kd [7]	koff [7]	kon [7]	Binder
5.02 fold over background	no binding	2.41 nM	1.7 fold	11.5 fold					57D7.A1 (antibody, V domains shown, Mouse hybridoma antibody, Ig2a, k; also called RS8.57D7.A1) VH: QVQLKESGPGLVAPSQSLSITCTVSGFSLSRYSVYWVRQPPGKGLEWLGMIWGGGNTDYNSALKSRLSISKDNSKSQVFLKMNSLQTDDSAMYYCVQYGGMDYWGQGTSVTVSS VL: DVLMTQTPLSLPVSLGDQASISCRSSQSIVHSNGNTYLEWYLQKPGQSPKLLIYKVSNRFSGVPDRFSGSGSGTDFTLKISRVEAEDLGVYYCFQGSHVPYTFGGGTKLEIK
11.6 fold over background	no binding	63.4 nM	1.2 fold	7 fold	26.5 nM				49H11.B1 (antibody, IgG3, V domains shown, Mouse hybridoma antibody, IgG3, k; also called RS8.49H11.B1) VH: DVQLQESGPGLVKPSQSLSLTCTVTGYSITSDYAWNWIRQFPGNRLEWMGYISFSGSTSYNPSLKSRISITRDTSKNQFFLQLNSVTTEDTATYYCARWNGNYGFAYWGQGTLVTVSA VL: DVVMTQTPLSLPVSLGDQASISCRSSQSLVHINGNTYLHWYLQKPGQSPKLLIYKVSNRFSGVPDRFSGSGSGTDFTLKISRVEAEDLGVYFCSQSTHVTFTFGSGTKLEIK
1.12 fold over background	no binding	2.67 nM	1.3 fold	7.6 fold					51D4 (antibody, IgG2a, V domains shown, Mouse hybridoma antibody, IgG2a, k; also called 51D4.A1; RS8.51D4.A1) VH: QVHLQQSGPEVVRPGVSVKISCKGSGYTFTDYGMHWVKQSHAKSLEWIGVISTYNGNTSYNQKYKGKATVTVDKPSSTAYMELVRLTSEDSAIYYCARDFGYVPFDYWGQGTTLTVSS VL: not shown
	no binding	1.82 nM	4 fold	12.3 fold					21D4.D1 (antibody, V domains shown, Mouse hybridoma antibody, Ig2a, k; also called RS8.21D4.D1) VH: QVQLQQSGADLLRPGVSVKISCKGSGYTFTDHAMHWVKQSHAESLEWIGVISTYSGDTGYNQKFKGKATMTVDKSSSTAYLELARLTSEDSAIYYCAREGHYDDAMDYWGQGTSVTVSS VL: not shown
1.23 fold over background	no binding	0.898 nM	0.8 fold	1 fold					40H3.A4 (antibody, V domains shown, Mouse hybridoma antibody, isotype N.D; also called RS8.40H3.A4) VH: EVQLQQSGAEVVKPGASVKLSCTASGFNIKDTYMHWVKQRPEQGLEWIGRIDPANGNTKYDPKFQGKATITADTSSNTAYLQLSSLTSEDTAVYYCATLFAYWGQGTLVTVSA VL: DIVMTQAAFSNPVTLGTSASISCRSSKSLLHSNGITYLYWYLQKPGQSPQLLIYQMSNLASGVPDRFSSSGSGIDFTLRINRVEAEDVGVYYCAQNLELPTFGSGTKLEIK
